B1: EV-E capsid protein VP2 (natural protein)
chain: SPSAEACGYSDRVAQLTLGNSTITTQEAANICVAYGCWPAKLSDTDATSVDKPTEPGVSADAFYTLRSKPWQADSKGWYWKLPDALNNTGMFGQNAQFHYIYRGGWAVHVQCNATKFHQGTLLVLAIPEHQIATQEQPAFDRTMPGSEGGTFQEPFWLEDGTSLGNSLIYPHQWINLRTNNSATLILPYVNAIPMDSAIRHSNWTLAIIPVAPLKYAAETTPLVPITVTIAPMETEYNGLRRAIASNQ
notes: VP2, cut product of VP0 of the enterovirus-E polyprotein; genome NC_001859; modelled from residue Y9; numbers count on: the mature VP2; source: EV-E propagated in BHK cells; virions purified (sucrose cushion, sucrose gradient)

How the values were obtained:
EV-E capsid protein VP1 = target: T1, EV-E capsid protein VP1 (enterovirus-E (EV-E), UniProt P12915 560-840); test: cryo-EM structure; purified EV-E virions in PBS; single particle analysis with icosahedral symmetry, ~2.2 Å; also symmetry expansion and focused classification; conditions: both partners purified
T1 construct: VP1, cut product of the enterovirus-E (formerly bovine enterovirus) polyprotein; genome NC_001859; numbers count on: the mature VP1; The N-terminal arm is not fully built in the model; source: EV-E propagated in BHK cells; virions purified (sucrose cushion, sucrose gradient)
T1 sequence: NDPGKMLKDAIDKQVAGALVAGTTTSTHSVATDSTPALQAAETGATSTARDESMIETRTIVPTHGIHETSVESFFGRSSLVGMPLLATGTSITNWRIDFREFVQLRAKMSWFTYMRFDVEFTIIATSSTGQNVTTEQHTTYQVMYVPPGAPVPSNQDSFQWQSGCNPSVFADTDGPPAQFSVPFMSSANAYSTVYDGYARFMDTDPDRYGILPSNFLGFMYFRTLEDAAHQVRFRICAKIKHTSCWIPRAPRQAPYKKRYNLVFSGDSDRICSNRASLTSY

EV-E capsid protein VP2 = target: B1; test: as above; conditions: both partners purified

B1: binds (EV-E capsid protein VP1).

B2: EV-E capsid protein VP3 (natural protein)
chain: GLPTKPGPGSYQFMTTDEDCSPCILPDFQPTLEIFIPGKVNNLLEIAQVESILEANNREGVEGVERYVIPVSVQDALDAQIYALRLELGGSGPLSSSLLGTLAKHYTQWSGSVEITCMFTGTFMTTGKVLLAYTPPGGDMPRNREEAMLGTHVVWDFGLQSSITLVIPWISASHFRGVSNDDVLNYQYYAAGHVTIWYQTNMVIPPGFPNTAGIIMMIAAQPNFSFRIQKDREDMTQTAILQ
notes: VP3, cut product of the enterovirus-E polyprotein; genome NC_001859; numbers count on: the mature VP3; source: EV-E propagated in BHK cells; virions purified (sucrose cushion, sucrose gradient)
B2: binds (EV-E capsid protein VP2); binds (EV-E capsid protein VP1).

Reference: paper PMC7793301, “Assembly of infectious enteroviruses depends on multiple, conserved genomic RNA-coat protein contacts” (PLoS Pathogens, 2020)
